The values that follow come from patent publication CN115746131A.

Experiment [1] concerns the target 天然类风湿因子RF (natural rheumatoid factor; 北京霍尔姆斯(Holmes)生物技术有限公司, 货号HA129AN). Briefly: indirect ELISA, RF coated, ascites diluted 1:62500. Background: An ELISA detects its analyte on a solid surface through an enzyme-linked reagent.
Experiment [2] shares this target. Briefly: indirect ELISA, RF coated, ascites diluted 1:2500.
The target is the same in experiment [3]. Briefly: indirect ELISA, RF coated, ascites diluted 1:312500.
For experiment [4] the target is unchanged. In words: indirect ELISA, RF coated, ascites diluted 1:1562500.
Experiment [5] shares this target. Briefly: indirect ELISA, RF coated, ascites diluted 1:500.
The target is the same in experiment [6]. Briefly: indirect ELISA, RF coated, ascites diluted 1:12500.
The target of experiment [7] is 类风湿因子RF in clinical false-positive serum samples 9233354 (RF1) and 9233353 (RF2). Briefly: cell-based or functional assay.
In experiment [8] the target is 天然类风湿因子RF (natural rheumatoid factor; 北京霍尔姆斯(Holmes)生物技术有限公司, 货号HA129AN). Briefly: indirect ELISA, RF coated, ascites diluted 1:100.

B1: 单克隆抗体anti-blocker-MAB7 (A3-2) (antibody, V domains shown)
VH: VKLQQSGPGLVKPSQSLSLTCTVTGYSITSDYAWNWIRQFPGNKLEWMGYISYSGSTSYNPSLQSRISITRDTSKNQFFLQLNSVTTEDTATYYCARLANWVFDYWGQGTTLTVSS
VL: DIQMTQSPASLSVSVGETVTITCRASENIYSFLAWYQQKQGKSPQLLVYAATNLADGVPSRFSGSGSGTQYSLKINSLQYEDFGSYYCQHFRGTPYTFGGGTRL
As for B1, the ELISA read-out at ascites dilution 62500 in experiment [1] was found to be 0.715. For the same molecule, in experiment [2], the ELISA read-out at ascites dilution 2500 was found to be 1.52. Also, the ELISA read-out at ascites dilution 312500 in experiment [3] amounted to 0.461. The ELISA read-out at ascites dilution 1562500 in experiment [4] came to 0.195. The ELISA read-out at ascites dilution 500 in experiment [5] turned out to be 1.82. In experiment [6], the ELISA read-out at ascites dilution 12500 is 1.17. The 干扰的影响降低 (免疫胶体金平台) in experiment [7] is 10 倍. In addition, the ELISA read-out at ascites dilution 100 in experiment [8] stood at 2.01.
